Reference: US6485936

Legend:
GST-HSF1N101 (human) = GST-HSF1N101 (human) (UniProt Q00613); test: GST pull-down; 35S-labeled in vitro translated protein on GST-fusion glutathione-Sepharose, SDS-PAGE, autoradiography, BAS2000 quantification
GST-HSF2N96 (human) = GST-HSF2N96 (human) (UniProt Q03933); test: as above
Chain of GST-HSF2N96 (human) (Q03933 96-536): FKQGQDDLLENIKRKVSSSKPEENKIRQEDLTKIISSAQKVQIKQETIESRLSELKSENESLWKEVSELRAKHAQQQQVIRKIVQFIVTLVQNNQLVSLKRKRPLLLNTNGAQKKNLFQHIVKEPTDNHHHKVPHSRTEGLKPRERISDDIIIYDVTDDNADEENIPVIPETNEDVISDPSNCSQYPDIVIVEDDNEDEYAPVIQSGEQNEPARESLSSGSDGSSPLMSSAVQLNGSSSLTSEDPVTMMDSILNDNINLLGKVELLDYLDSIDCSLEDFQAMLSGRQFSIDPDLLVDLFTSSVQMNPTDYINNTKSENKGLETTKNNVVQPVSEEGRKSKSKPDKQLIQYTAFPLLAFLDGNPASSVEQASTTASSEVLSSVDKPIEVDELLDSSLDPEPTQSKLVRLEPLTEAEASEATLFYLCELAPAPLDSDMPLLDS

Chain of GST-HSF1N101 (human) (Q00613 101-529): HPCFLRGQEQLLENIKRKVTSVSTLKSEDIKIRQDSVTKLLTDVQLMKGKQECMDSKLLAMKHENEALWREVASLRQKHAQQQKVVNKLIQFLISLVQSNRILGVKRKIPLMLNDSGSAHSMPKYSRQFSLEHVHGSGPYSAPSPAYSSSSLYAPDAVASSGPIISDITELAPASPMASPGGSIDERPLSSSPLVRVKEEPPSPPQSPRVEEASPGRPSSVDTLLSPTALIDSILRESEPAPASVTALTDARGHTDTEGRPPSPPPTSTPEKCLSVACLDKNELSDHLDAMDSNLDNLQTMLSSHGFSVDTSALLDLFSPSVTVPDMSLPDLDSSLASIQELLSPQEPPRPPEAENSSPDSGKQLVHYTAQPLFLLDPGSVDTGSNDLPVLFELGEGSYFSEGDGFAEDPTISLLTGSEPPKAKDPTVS

proportion of bound HSF2BP (% of the level of input) (% of the level of input) (GST-HSF1N101 (human)): 8.5
proportion of bound HSF2BP (% of the level of input) (% of the level of input) (GST-HSF2N96 (human)): 7.9
B1: HSF2 binding protein (HSF2BP), in vitro translated, 35S-methionine-labeled (protein)
chain: MGEAGAAEEACRHMGTKEEFVKVRKKDLERLTTEVMQIRDFLPRILNGEVLESFQKLKIVEKNLERKEQELEQLKMDCEHFKARLETVQADNIREKKEKLALRQQLNEAKQQLLQQAEYCTEMGAAACTLLWGVSSSEEVVKAILGGDKALKFFSITGQTMESFVKSLDGDVQELDSDESQFVFALAGIVTNVAAIACGREFLVNSSRVLLDTILQLLGDLKPGQCTKLKVLMLMSLYNVSINLKGLKYISESPGFIPLLWWLLSDPDAEVCLHVLRLVQSVVLEPEVFSKSASEFRSSLPLQRILAMSKSRNPRLQTAAQELLEDLRTLEHNV
modifications: 35S-methionine label
